The data set concerns the molecule itself. The data set can be described thus: ultracentrifugation of heated protein and dot blot of the pellet with A11 and OC antibodies; 7 uM protein heated at 37 °C for 1 h, then 14 h at 25 °C; 1,00,000 x g for 60 min (2 h for OC).

B1: BAP1 catalytic domain (1–240), wild type (domain or fragment, human, UniProt Q92560 1-240, looked up)
chain: MNKGWLELESDPGLFTLLVEDFGVKGVQVEEIYDLQSKCQGPVYGFIFLFKWIEERRSRRKVSTLVDDTSVIDDDIVNNMFFAHQLIPNSCATHALLSVLLNCSSVDLGPTLSRMKDFTKGFSPESKGYAIGNAPELAKAHNSHARPEPRHLPEKQNGLSAVRTMEAFHFVSYVPITGRLFELDGLKVYPIDHGPWGEDEEWTDKARRVIMERIGLATAGEPYHDIRFNLMAVVPDRRIK
notes: BRCA1 associated protein 1 (BAP1), human, N-terminal catalytic (UCH) domain, residues 1-240, subcloned into pGEX-6P-1 from Flag-HA-BAP1; also called WT 240; BAP1 (1–240); source: E. coli Rosetta 2, purified (standard GST purification protocol)
In the case of B1, the binding result is “binds”.

B2: BAP1 catalytic domain (1–240) F81V (domain or fragment, human, UniProt Q92560 1-240, looked up)
chain: MNKGWLELESDPGLFTLLVEDFGVKGVQVEEIYDLQSKCQGPVYGFIFLFKWIEERRSRRKVSTLVDDTSVIDDDIVNNMVFAHQLIPNSCATHALLSVLLNCSSVDLGPTLSRMKDFTKGFSPESKGYAIGNAPELAKAHNSHARPEPRHLPEKQNGLSAVRTMEAFHFVSYVPITGRLFELDGLKVYPIDHGPWGEDEEWTDKARRVIMERIGLATAGEPYHDIRFNLMAVVPDRRIK
notes: BAP1, human, catalytic domain residues 1-240 with the cancer-associated mutation F81V; source: E. coli Rosetta 2, purified (standard GST purification protocol)
Regarding B2, the binding result was “binds”.

These data come from article PMC4683529, “Cancer associated missense mutations in BAP1 catalytic domain induce amyloidogenic aggregation: A new insight in enzymatic inactivation” (Scientific Reports, 2015).
